From paper PMC6614819 (Nucleic Acids Research, 2019)

Tests used:
Assay in all cases: SEC
TmTsaD K213A = TmTsaD K213A (Thermotoga maritima, UniProt Q9WXZ2 1-327, K213A)
TmTsaD D182A = TmTsaD D182A (Thermotoga maritima, UniProt Q9WXZ2 1-327, D182A)
TmTsaD K166A = TmTsaD K166A (Thermotoga maritima, UniProt Q9WXZ2 1-327, K166A)
TmTsaD D165A = TmTsaD D165A (Thermotoga maritima, UniProt Q9WXZ2 1-327, D165A)
TmTsaD S134A = TmTsaD S134A (Thermotoga maritima, UniProt Q9WXZ2 1-327, S134A)
[1] = target: T. maritima TsaD (TmTsaD), wild type (Thermotoga maritima, UniProt Q9WXZ2 1-327)
Chain of T. maritima TsaD (TmTsaD), wild type (Q9WXZ2 whole entry): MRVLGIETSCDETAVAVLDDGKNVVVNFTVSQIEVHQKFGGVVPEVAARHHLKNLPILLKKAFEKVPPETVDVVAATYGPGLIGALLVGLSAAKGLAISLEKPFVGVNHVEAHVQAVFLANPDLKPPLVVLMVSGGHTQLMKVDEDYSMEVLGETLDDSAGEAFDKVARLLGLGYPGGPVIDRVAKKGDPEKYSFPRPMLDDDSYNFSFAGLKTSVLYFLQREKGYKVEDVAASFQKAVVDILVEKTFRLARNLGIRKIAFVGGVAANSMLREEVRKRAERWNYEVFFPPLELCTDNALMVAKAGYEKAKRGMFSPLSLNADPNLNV

Measured: binding result

Chain of TmTsaD D165A (Q9WXZ2 whole entry D165A): as the sequence (Q9WXZ2 whole entry) above, with D165A counted along it
Chain of TmTsaD D182A (Q9WXZ2 whole entry D182A): as the sequence (Q9WXZ2 whole entry) above, with D182A counted along it
Chain of TmTsaD K166A (Q9WXZ2 whole entry K166A): as the sequence (Q9WXZ2 whole entry) above, with K166A counted along it
Chain of TmTsaD K213A (Q9WXZ2 whole entry K213A): as the sequence (Q9WXZ2 whole entry) above, with K213A counted along it
Chain of TmTsaD S134A (Q9WXZ2 whole entry S134A): as the sequence (Q9WXZ2 whole entry) above, with S134A counted along it

B1: T. maritima TsaB (TmTsaB), wild type (natural protein, Thermotoga maritima)
chain: MNVLALDTSQRIRIGLRKGEDLFEISYTGEKKHAEILPVVVKKLLDELDLKVKDLDVVGVGIGPGGLTGLRVGIATVVGLVSPYDIPVAPLNSFEMTAKSCPADGVVLVARRARKGYHYCAVYLKDKGLNPLKEPSVVSDEELEEITKEFSPKIVLKDDLLISPAVLVEESERLFREKKTIHYYEIEPLYLQKSIAELNWEKKKRG
not listed: [1]
binds: all other assays above

B2: TmTsaB deletion mutant lacking the C-terminal helix and tail Leu189-Gly206 (domain or fragment, Thermotoga maritima, UniProt Q9WZX7 1-188, looked up)
chain: MNVLALDTSQRIRIGLRKGEDLFEISYTGEKKHAEILPVVVKKLLDELDLKVKDLDVVGVGIGPGGLTGLRVGIATVVGLVSPYDIPVAPLNSFEMTAKSCPADGVVLVARRARKGYHYCAVYLKDKGLNPLKEPSVVSDEELEEITKEFSPKIVLKDDLLISPAVLVEESERLFREKKTIHYYEIEP
binds: [1]
